Results: the DeepSol protein solubility set

Assay: soluble on expression in E. coli; label from the status in PepcDB or PDB records

Sequence	soluble on expression in E. coli
MSLKDKILTIDVGTGSTRAAIVRIDGAMIGFAQREYEQTTPRAGWSEQAPSLWWQAACDCIREVLYRYPETAAQIAVIGACGQMHGTVLLDDRGELVEDRALLWNDKRSQPQVDAFNAREGWEKWLAHLNNPPAAAWPAFKLAWWRENHPDRWSQLAKVLMPKDYINFMLTGAMATDYSEASCYFLMDSETRSWSSQACETFGLRVDQLPELKLSSDIIGQVTQPAADLTGLPAGIPVVAGTSDMAASLLGSGVYEPGMASDSTGTSTLMTVVSPRPLHHPLVNNLHLANAAWGGFTILDAGGDAVRWARLALADNQITHPQLLQEAAAVPAGAEGLLFLPYLTGERLAEHTNSRAQFFGLQRKHRRGHLFRAVLEGVAFASWRNLRQLQKCGQYPQQMIASGGGARSSLWLEIKASAYNLPILSTRNQENGVTGCGIIAGVGVGLYADFASGVRQTVQFEKLISPDPLLRDYYHACCELFDTLYRQSAALYDRLDALSEGHHHHHH	soluble
MSLKELEEIRKEIDEVDKIITELFEKRMNLVMEVAEYKEKNSIPVSDSKREKKVIDKNIGYLKNKEYSEVLKEFYINFMNLSKKLERKRIYNEEKTSVNTSIYGLIGEKLGHSHSSYIHKLIFEKVGIKGIYNLFEVPKEKLKESVDTFKIIKCGGLNVTIPYKVEVMKELYEISEKARKIGAVNTLKFSREGISGFNTDYIGFGKMLSKFRVEIKNNICVVLGSGGAARAVLQYLKDNFAKDIYVVTRNPEKTSEIYGEFKVISYDELSNLKGDVIINCTPKGMYPKEGESPVDKEVVAKFSSAVDLIYNPVETLFLKYARESGVKAVNGLYMLVSQAAASEEIWNDISIDEIIVDEIFEVLEEKIKSEGHHHHHH	soluble
MSLKFAVLVFPGSNCDRDMYNAAIKSGVDAAYVDYRETTLDGFDGVLIPGGFSFGDYLRSGAMASVAPIIKEVKRFAKEGKPVLGVCNGFQILTEIGLLPGALLHNDSHLFISRNETLKITNNQTPFTHLYVKNENVVYPVAHGEGHYYCTDEIYRELNDNNQIILKYTNNPNGSYEDIAGIVNKEGNVCGMMPHPERALETLLGTNSGVKLFESMVKSWREQNEGHHHHHH	soluble
MSLKFVTIRDIAREAGVSINTVSRALNDKPDINVETKKKVLEVADRLGYIRDATAVSLRYGLTRVIGVILEDSSNPFYSEVLKGIEMAAKKKKFNVIFMNTERSYELENEAIKTMIGRRVDGMIISPTQEKCDDIKLLSEKGIPFVVLGVHFDELNVPEIYTDDEKGGYLATKHLIEIGRRRILFLNGFTYKSVAKMRLNGYRKALKEFGLEYDKSLVHEIEEGYENAYNKVKELLKKGIKFDSIFCFNDVFAIGAIGALKEEGIKVPQDIAVVGYDDIYFSKFISPSLTTVKIDKILEGKLAFEMLHGILTKKTGKNVKNVLDVELIVRESTIDKIGEGHHHHHH	soluble
MSLKGDYFFMDRRPLILVAEENLHNLELLNSHMKTLNYDCICAKQGVRAIILAQTQKPDLIILDMILSDLSGSQVINHLKQDSKTANIPIIAVIPFILVQNQDHLFLTGADDYITKPYNFIQLNTLITHYVNRRHSSSLLSEGHHHHHH	soluble
MSLKHYQRINELEEKKIKLRERPVIDELSKVKKLKLTGQTEALFESWRSSWDEIETRLFPDLEEVLLEAEMNTDRYKFRSATHAENDIEQMLVVIEKQMDQILGGLKELLISEEKNAKESRATKEKFAELRREVLTRGFKLGETLPYIETKLSELSESLNSYDSLTDQGDHLEAREIVIVVQKEMQVIEAQMERIPSLLHETDTILPEEMTKLRAGYEEMVRKGYYLAQMELDKEISRMKNQIDKMKKNVINLDLDEAEQGVEELHNEIDLFYDTLEHEAEARHFVKENHSPTSDKLQRQNAVSDALAEQITEVKQTYHVAEDDLAVYLKTSAKLSEAKENFEQLTALIASGEIAYSAAQDTLKEIDAALITISAEQDKFAEELRSLRKDELEARDDAERMRRAIITLDRKMERERLPGLPEEYLSLREHMGESINALEKRLEEKPLNMKAVSQDWRIAEEDLTHLTEKAEEMMENVRLVEHVIQYANRYRLRNKELADELVQAENHFYNDYQYKKALEIAVTALEKVETGAFKKVEKAYESKVSVDEGHHHHHH	soluble
MSLKICVIGSSGHFRYALEGLDEECSITGIAPGVPEEDLSKLEKAISEMNIKPKKYNNWWEMLEKEKPDILVINTVFSLNGKILLEALERKIHAFVEKPIATTFEDLEKIRSVYQKVRNEVFFTAMFGIRYRPHFLTAKKLVSEGAVGEIRLVNTQKSYKLGQRPDFYKKRETYGGTIPWVGIHAIDWIHWITGKKFLSVYATHSRLHNSGHGELETTALCHFTLENEVFASLSIDYLRPQGAPTHDDDRMRIVGTRGIVEVINERVFLTDEKGHREVPLVEKGQIFEDFLREIRGQGKCMVTPEDSILTTEIALKARLSADTGQIVLIEGHHHHHH	soluble
MSLKILDISTEVKEIALKTPFITALRRVDAVEFVRVKVVCDDGSVAYGEAPATRAVTGEDIYSILSDIAFIQEELIGLTPKDAIVSLHLAEMGSSAKAALDMALFYLLPQTKEKQNLTLQTDITISLKDSDEMISDATQAIASGMNILKVKFGGDIKHAIEVTNRLSELDAKLIIDANQAWTQDDTMEYLEATLNVKLELIEQPVKADELHELRCITNYSHVPILADESVFTLEDAKAIIEYACADMINIKLMKCGGVTKAIEILEFARKNDIKCMLGSMLEGPISINAALNLAMEYSDVIAYIDLDSPLLYKEPSNELEFDFNGCEITRKEGHHHHHH	soluble
MSLKINNLVDLHCHILPAIDDGSPSLEASLELARQAVADGIRYILATPHHMDRHYLNHAGDVVAAVEAFQAELDVNDIPLTIFPGQEVHLNGQLMEKVDDLLSIDTGRHYLLLELPHEMVPSYLDEMIFQLSCEGITPVIAHPERNAQIIAEPQRLYKLAEDGVLAQVTATSLVGTFGEQVQRTAKEFVKCGLVQVVASDAHTLKNRGFAMTKAYQVLNEMDSKYPERFATNARDLLNGEQIEMGQIEIPRKQRKHWLFEGHHHHHH	soluble
MSLKIRQARLEDLDRIVELEFENFSVEEAIPPSVFEAHLREIQTSFLVAEKEGRIMGYIEGPVGLHRHLQDQSFTEEIKDYSHEPGGYISVTCLSIAKEAQGLGLGQKLLTALKEVALEDERDGINLTCHDYLIAYYEKHGFVNEGQSQSTFAGETWYDMVWEMKKEGHHHHHH	soluble
MSLKITAVEPFILHLPLTSESISDSTHSITHWGVVGAKITTSDGIEGYGFTGTHAHLPSDRLITSCISDCYAPLLLGEDASDHSRLWTKLARYPSLQWVGRAGITHLALAAVDVALWDIKAKKAGVPLWHYLGGARTAGVEAYNTDIGWLSFTLEDLLAGSARAVEEDGFTRLKIKVGHDDPNIDIARLTAVRERVDSAVRIAIDGNGKWDLPTCQRFCAAAKDLDIYWFEEPLWYDDVTSHARLARNTSIPIALGEQLYTVDAFRSFIDAGAVAYVQPDVTRLGGITEYIQVADLALAHRLPVVPHAGEMSQVHVHLSYWHPASTILEYIPWIKDHFEEPIHVRDGVYKRPEQPGASTTPLAESFTRYGKAVKEGHHHHHH	soluble
MSLKITRITVYQIALPLEHPYWLSGGRLKFEVLDATLVKIETGTGLTGWGEGTPWGHTYVPAHGPGIRAGIETMAPFIIGLDPRRGLEIERAMDLALPGHLYAKSPIDMACWDIAGQAAGLSIADLMGGGSRTPRPIASSVGAKTVEETRAVIERYRQRGYVAHSVKIGGDIERDIARVRDVESLRRDGEIVLYDVNRGWTRQQALRVMSATEDLNVMFEQPCESLDDIAAIAGKYAAPVSVDESLVTLQDAARIARDGLAEVFGIKLNRVGGLTKAARMRDIALAHGIDMFVMATGGSVLADAEALHLAATIPDANCHAVWACQDMITLDIAGGRGPRNIDGHLHLTEAPGLGVHPDEDVLGDPVGVYGEGHHHHHH	not soluble
MSLKKFSCGFEVTKEVIGGKWKGLVLYFLMNGPKRTSELKRIIPNITQKMLIQTLRELEASGLVSRKMYNQVPPKVEYSSTELGESLKPILQELCQWGGYYAEQEYAEGEYEIVQPEQLSEGGSHHHHHH	soluble
MSLKKGYELLIFDWDGTLADSIGRIVEAMNVAAERAGEAQSSDAAVKGIIGLALDEAIHTLYPHLAPAEVASFRQHYADVYVALDQQPSPLFDGVVESLDAFRAEGYRLAVATGKARRGLDRVLKANGWERFFDITRAADETRGKPHPLMLEEILGHCGVEPSRALMVGDSAFDLQMASNAGMHSVAVGYGAMSLQALAEFGPQVCIDHFSQLREWLGGSAIPLPREGHHHHHH	soluble
